Test results published in IntAct's records for PubMed 30026314.

B1: Protein Wnt-7a (Homo sapiens), O00755 (parent)
chain: MNRKARRCLGHLFLSLGMVYLRIGGFSSVVALGASIICNKIPGLAPRQRAICQSRPDAIIVIGEGSQMGLDECQFQFRNGRWNCSALGERTVFGKELKVGSREAAFTYAIIAAGVAHAITAACTQGNLSDCGCDKEKQGQYHRDEGWKWGGCSADIRYGIGFAKVFVDAREIKQNARTLMNLHNNEAGRKILEENMKLECKCHGVSGSCTTKTCWTTLPQFRELGYVLKDKYNEAVHVEPVRASRNKRPTFLKIKKPLSYRKPMDTDLVYIEKSPNYCEEDPVTGSVGTQGRACNKTAPQASGCDLMCCGRGYNTHQYARVWQCNCKFHWCCYVKCNTCSERTEMYTCK
partner: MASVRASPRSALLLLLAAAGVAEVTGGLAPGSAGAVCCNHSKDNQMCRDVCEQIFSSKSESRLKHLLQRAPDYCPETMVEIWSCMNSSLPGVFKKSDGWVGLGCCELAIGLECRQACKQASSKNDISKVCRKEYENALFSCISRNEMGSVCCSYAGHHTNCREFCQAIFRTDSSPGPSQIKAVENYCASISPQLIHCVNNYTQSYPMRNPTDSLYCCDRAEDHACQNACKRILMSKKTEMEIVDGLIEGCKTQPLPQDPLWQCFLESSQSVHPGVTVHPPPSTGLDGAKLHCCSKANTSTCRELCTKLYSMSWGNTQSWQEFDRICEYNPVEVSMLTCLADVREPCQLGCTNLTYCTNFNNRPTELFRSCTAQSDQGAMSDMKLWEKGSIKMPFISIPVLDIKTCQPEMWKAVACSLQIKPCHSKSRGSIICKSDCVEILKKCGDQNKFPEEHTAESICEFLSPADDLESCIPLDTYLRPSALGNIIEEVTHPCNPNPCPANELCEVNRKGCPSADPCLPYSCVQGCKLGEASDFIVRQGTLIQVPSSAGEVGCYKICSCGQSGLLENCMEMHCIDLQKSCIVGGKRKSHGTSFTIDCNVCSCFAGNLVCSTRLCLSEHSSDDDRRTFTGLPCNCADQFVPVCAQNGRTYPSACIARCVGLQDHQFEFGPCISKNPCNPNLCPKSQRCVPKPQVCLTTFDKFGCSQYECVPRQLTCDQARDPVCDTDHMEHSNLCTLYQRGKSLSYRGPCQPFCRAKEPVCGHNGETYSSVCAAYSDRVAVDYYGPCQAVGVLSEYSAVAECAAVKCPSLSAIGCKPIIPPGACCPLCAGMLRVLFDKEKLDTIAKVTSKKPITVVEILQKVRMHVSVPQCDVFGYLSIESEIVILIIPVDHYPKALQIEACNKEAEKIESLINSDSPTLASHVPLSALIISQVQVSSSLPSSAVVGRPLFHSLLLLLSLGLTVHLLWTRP

Variants of: B1
Conditions: with reck_mouse Reck

Row | Variant | effect of a mutation on the interaction
1 | V241A;F251A;L252A;K262A | disrupting interaction strength
